In the supplement of paper PMC10567573:

B1: MATN2 (parent)
chain: VNVPGSFVCQCYSGYALAEDGKRC

Variants of: B1
Experiment: protein stability index of a GFP-peptide fusion (GPS, HEK-293T) (PSI 1-6); higher = more stable
Conditions: c terminus: a fixed tail appended
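Further: lentivirally expressed fusions sorted by FACS into six bins by GFP to DsRed ratio, PSI derived from sequencing read proportions per bin multiplied by bin number.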

Variant | protein stability index
VNHPGSFVCQCYSGYALAEDGKRC [V3H] | 1.81
VNIPGSFVCQCYSGYALAEDGKRC [V3I] | 1.23
VNKPGSFVCQCYSGYALAEDGKRC [V3K] | 2.82
VNLPGSFVCQCYSGYALAEDGKRC [V3L] | 2.35
VNMPGSFVCQCYSGYALAEDGKRC [V3M] | 2.21
VNNPGSFVCQCYSGYALAEDGKRC [V3N] | 1.73
VNPPGSFVCQCYSGYALAEDGKRC [V3P] | 2.08
VNQPGSFVCQCYSGYALAEDGKRC [V3Q] | 2.26
VNRPGSFVCQCYSGYALAEDGKRC [V3R] | 2.05
VNSPGSFVCQCYSGYALAEDGKRC [V3S] | 2.16
VNTPGSFVCQCYSGYALAEDGKRC [V3T] | 2.39
VNYPGSFVCQCYSGYALAEDGKRC [V3Y] | 2.52
VNVAGSFVCQCYSGYALAEDGKRC [P4A] | 1.87
VNVCGSFVCQCYSGYALAEDGKRC [P4C] | 2.07
VNVDGSFVCQCYSGYALAEDGKRC [P4D] | 1.91
VNVEGSFVCQCYSGYALAEDGKRC [P4E] | 2.46
VNVFGSFVCQCYSGYALAEDGKRC [P4F] | 1.36
VNVGGSFVCQCYSGYALAEDGKRC [P4G] | 1.86
VNVHGSFVCQCYSGYALAEDGKRC [P4H] | 1.47
VNVIGSFVCQCYSGYALAEDGKRC [P4I] | 1.04
VNVKGSFVCQCYSGYALAEDGKRC [P4K] | 1.92
VNVLGSFVCQCYSGYALAEDGKRC [P4L] | 1.99
VNVMGSFVCQCYSGYALAEDGKRC [P4M] | 2.1
VNVNGSFVCQCYSGYALAEDGKRC [P4N] | 1.94

Variant | protein stability index
VNVQGSFVCQCYSGYALAEDGKRC [P4Q] | 2.97
VNVRGSFVCQCYSGYALAEDGKRC [P4R] | 1.33
VNVSGSFVCQCYSGYALAEDGKRC [P4S] | 1.34
VNVTGSFVCQCYSGYALAEDGKRC [P4T] | 1
VNVVGSFVCQCYSGYALAEDGKRC [P4V] | 2.28
VNVPASFVCQCYSGYALAEDGKRC [G5A] | 1.67
VNVPCSFVCQCYSGYALAEDGKRC [G5C] | 2.68
VNVPDSFVCQCYSGYALAEDGKRC [G5D] | 2.06
VNVPESFVCQCYSGYALAEDGKRC [G5E] | 1.79
VNVPHSFVCQCYSGYALAEDGKRC [G5H] | 2.6
VNVPISFVCQCYSGYALAEDGKRC [G5I] | 1.45
VNVPLSFVCQCYSGYALAEDGKRC [G5L] | 1.06
VNVPMSFVCQCYSGYALAEDGKRC [G5M] | 1.47
VNVPNSFVCQCYSGYALAEDGKRC [G5N] | 1.75
VNVPPSFVCQCYSGYALAEDGKRC [G5P] | 2.31
VNVPQSFVCQCYSGYALAEDGKRC [G5Q] | 2.14
VNVPRSFVCQCYSGYALAEDGKRC [G5R] | 2.17
VNVPSSFVCQCYSGYALAEDGKRC [G5S] | 1.91
VNVPTSFVCQCYSGYALAEDGKRC [G5T] | 1.87
VNVPVSFVCQCYSGYALAEDGKRC [G5V] | 1.17
VNVPWSFVCQCYSGYALAEDGKRC [G5W] | 4.67
VNVPYSFVCQCYSGYALAEDGKRC [G5Y] | 1.2
VNVPGCFVCQCYSGYALAEDGKRC [S6C] | 2.05
VNVPGDFVCQCYSGYALAEDGKRC [S6D] | 2.97

Variant | protein stability index
VNVPGEFVCQCYSGYALAEDGKRC [S6E] | 2.67
VNVPGFFVCQCYSGYALAEDGKRC [S6F] | 3.53
VNVPGGFVCQCYSGYALAEDGKRC [S6G] | 1.47
VNVPGHFVCQCYSGYALAEDGKRC [S6H] | 2.27
VNVPGKFVCQCYSGYALAEDGKRC [S6K] | 1.89
VNVPGNFVCQCYSGYALAEDGKRC [S6N] | 1.43
VNVPGQFVCQCYSGYALAEDGKRC [S6Q] | 1.81
VNVPGRFVCQCYSGYALAEDGKRC [S6R] | 3.39
VNVPGTFVCQCYSGYALAEDGKRC [S6T] | 2.12
VNVPGVFVCQCYSGYALAEDGKRC [S6V] | 1.84
VNVPGWFVCQCYSGYALAEDGKRC [S6W] | 2.04
VNVPGYFVCQCYSGYALAEDGKRC [S6Y] | 1.87
VNVPGSAVCQCYSGYALAEDGKRC [F7A] | 2.85
VNVPGSCVCQCYSGYALAEDGKRC [F7C] | 2.28
VNVPGSDVCQCYSGYALAEDGKRC [F7D] | 2.56
VNVPGSEVCQCYSGYALAEDGKRC [F7E] | 2.94
VNVPGSGVCQCYSGYALAEDGKRC [F7G] | 3.34
VNVPGSHVCQCYSGYALAEDGKRC [F7H] | 3.02
VNVPGSIVCQCYSGYALAEDGKRC [F7I] | 1.92
VNVPGSKVCQCYSGYALAEDGKRC [F7K] | 2.98
VNVPGSLVCQCYSGYALAEDGKRC [F7L] | 2.07
VNVPGSMVCQCYSGYALAEDGKRC [F7M] | 2.7
VNVPGSNVCQCYSGYALAEDGKRC [F7N] | 1.06
VNVPGSPVCQCYSGYALAEDGKRC [F7P] | 3.13

Variant | protein stability index
VNVPGSQVCQCYSGYALAEDGKRC [F7Q] | 2.14
VNVPGSRVCQCYSGYALAEDGKRC [F7R] | 3.21
VNVPGSSVCQCYSGYALAEDGKRC [F7S] | 2.62
VNVPGSTVCQCYSGYALAEDGKRC [F7T] | 2.88
VNVPGSVVCQCYSGYALAEDGKRC [F7V] | 2.19
VNVPGSWVCQCYSGYALAEDGKRC [F7W] | 2.48
VNVPGSYVCQCYSGYALAEDGKRC [F7Y] | 2.01
VNVPGSFACQCYSGYALAEDGKRC [V8A] | 2.16
VNVPGSFCCQCYSGYALAEDGKRC [V8C] | 1.27
VNVPGSFDCQCYSGYALAEDGKRC [V8D] | 3.89
VNVPGSFECQCYSGYALAEDGKRC [V8E] | 2.53
VNVPGSFFCQCYSGYALAEDGKRC [V8F] | 1.79
VNVPGSFGCQCYSGYALAEDGKRC [V8G] | 1.92
VNVPGSFHCQCYSGYALAEDGKRC [V8H] | 2.34
VNVPGSFICQCYSGYALAEDGKRC [V8I] | 2.21
VNVPGSFKCQCYSGYALAEDGKRC [V8K] | 2.74
VNVPGSFLCQCYSGYALAEDGKRC [V8L] | 2.35
VNVPGSFMCQCYSGYALAEDGKRC [V8M] | 2.79
VNVPGSFNCQCYSGYALAEDGKRC [V8N] | 2.51
VNVPGSFPCQCYSGYALAEDGKRC [V8P] | 2.28
VNVPGSFQCQCYSGYALAEDGKRC [V8Q] | 2.51
VNVPGSFSCQCYSGYALAEDGKRC [V8S] | 3.19
